This passage reports binding result and Ka results from US20070160601A1 (published 2007).

Square brackets hold non-standard residues; d marks the D form. cellulose membrane = cellulose membrane solid support, attached through a beta-alanine spacer; sY = N[C@@H](Cc1ccc(OS(=O)(=O)O)cc1)C(=O)O; βAla = NCCC(=O)O

The target of assay [1] is T1, human PSGL-1 on cells (human, UniProt Q14242 42-412).
T1 construct: whole, on cells; One molecule is used for HL-60 cells, recombinant CHO cells and blood cells; The cell type is named in each entry; also called native PSGL-1 expressed on HL-60 cells; recombinant CHO cells expressing human PSGL-1
T1 sequence (looked up): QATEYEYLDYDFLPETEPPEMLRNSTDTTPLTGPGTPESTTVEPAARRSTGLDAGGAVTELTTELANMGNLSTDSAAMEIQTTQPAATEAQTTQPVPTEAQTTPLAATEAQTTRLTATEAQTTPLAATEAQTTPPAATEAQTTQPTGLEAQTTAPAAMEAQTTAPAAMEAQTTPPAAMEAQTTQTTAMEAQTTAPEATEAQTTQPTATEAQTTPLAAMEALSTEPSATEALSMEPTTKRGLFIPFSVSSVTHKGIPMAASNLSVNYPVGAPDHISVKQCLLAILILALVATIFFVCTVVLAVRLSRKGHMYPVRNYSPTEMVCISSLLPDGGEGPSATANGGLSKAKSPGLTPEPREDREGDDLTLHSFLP
As to the kind of experiment: FACS on HL-60 cells, scFv complexed with mouse anti-Myc, FITC secondary. The procedure: Characterization of the antibodies using FACS analysis. The binding specificity of the neutralizing antibodies was assessed by FACS analysis of HL-60 cells as well as in parent and recombinant CHO cells expressing human or rat PSGL-1 (data not shown). For FACS analysis, 0.5×10⁶ cells were incubated in 100 μL HBSS 2 mM CaCl₂, 1% fetal calf serum, NaN₃, containing 15 or 50 μg of the indicated scFvs complexed with 50 μg/ml mouse-anti-Myc-HRP (Roche Applied Sciences, Indianapolis, Ind.). The cells were washed and incubated with 1:100 anti-mouse FITC-conjugated secondary antibody (Roche Applied Sciences, Indianapolis, Ind.). Analysis was performed on viable cells of the mononuclear population with low forward and side scatter properties. As shown in FIG. 7(A) and FIG. 7(B), PSG3, PSG5, and PSG6 scFvs bind to native PSGL-1 expressed on HL-60 cells.

Assay [2] deals with T2, fully sulfated and glycosylated human PSGL-1 19.ek.Fc fusion protein (human, not fully specified; sulfated tyrosines (y in QATEyEyLDyDFLPETEPPRPMMDDDDK, corresponding to Tyr46, Tyr48 and Tyr51); SLe^x-capped O-glycan; biotinylated in the assays).
T2 construct: also called PSGL-19.ek.Fc; biotinylated PSGL-1 19.ek.Fc
T2 chain: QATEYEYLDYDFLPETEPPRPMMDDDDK
The experiment in a line: BIAcore 2000, biotinylated PSGL-1 19.ek.Fc on streptavidin chip, antibody injected at 0-100 nM. The method, then: Surface plasmon resonance binding analysis. A BIAcore 2000 instrument (BIAcore AB, Uppsala, Sweden) was used to analyze the interactions between the identified antibodies and biotinylated PSGL-1 19.ek.Fc or derived peptides. Binding experiments were performed at 25° C. using streptavidin-coated sensor chips (BIAcore) and HBS-P buffer (20 mM HEPES [pH 7.4], 150 mM NaCl and 0.005% polysorbate 20 v/v) adjusted to 1 mM for both CaCl₂ and MgCl₂. The streptavidin on the sensor surfaces were condition with three one-minute injections of a solution containing 1 M NaCl and 25 mM NaOH. The chips were regenerated with 5 μL of 0.1% TFA and equilibrated with running buffer. […] Binding kinetics were analyzed using BIAevaluation software (V2.1; Pharmacia Biosensor, Uppsala, Sweden). The response representing the mass of bound monoclonal antibodies was measured in resonance units (RU). […] Binding kinetics of human anti-PSGL-1 monoclonal antibodies to the immobilized PSGL-1 19.ek.Fc was determined under partial mass transport limitations by triplicate injections at a concentration range (0-100 nM) onto the immobilized biotinlylated PSGL-1 19.ek peptide at a flow rate of 30 μL/min, following injection for two minutes. Dissociation was monitored for ten minutes at the same flow rate.
In general terms: In SPR one partner is held on a chip, and binding of the other changes the refractive index at the surface.

In assay [3] the target is T1, human PSGL-1 on cells. The experiment in a line: FACS on recombinant CHO cells expressing human PSGL-1 (data not shown).
For assay [4], the target named is T3, peptide EYEYLDyDF (SEQ ID NO:45) (human).
T3 construct: Spot 55 of the peptide array; also called peptide 55
T3 peptide: Ac-EYEYLD[sY]DF-{βAla-cellulose membrane}
The experiment in a line: peptide spot array on cellulose membrane, HRP anti-Fc detection. The source says: Epitope mapping of PSG3. Fmoc-protected amino acids and cellulose membranes modified with polyethylene glycol were purchased from Intavis. Fmoc-protected β-alanine was purchased from Chem-Impex (Wood Dale, Ill.). The arrays were defined on the membranes by coupling a β-alanine spacer, followed by elongation of the peptide chain. Peptides were synthesized using standard DIC/HOBt coupling chemistry as described previously. (See, e.g., Molina et al., Pept. Res. 9:151-155 (1996) and Frank et al., Tetrahedron 48:9217-9232 (1992)). Activated amino acids were spotted using an Abimed ASP 222 robot. Washing and deprotection steps were done manually and the peptides were N-terminally acetylated after the final synthesis cycle.
Following peptide synthesis and side chain deprotection, the membranes were washed in methanol for 10 minutes and in blocker (1% casein in TBS) for 10 minutes. The membranes were then incubated with 1 μg/mL of […] in TBS for 1 hour with gentle shaking. The membranes were washed 4 times for 2 minutes in TBS and then probed with an HRP-conjugated anti-Fc antibody in blocker. After washing with TBS, bound protein was visualized using SuperSignal West reagent (Pierce) and a digital camera (AlphaInnotech FluorImager). Signal intensity reflects the amount of protein bound at each spot.

B1: PSG6 scFv (scFv)
scFv: EVQLLESGGGLVRPGGSLRLSCAASGFTFSSYAMSWVRQAPGKGLEWVSAISGSGGSTYYADSVKGRFTISRDNSKNTLYLQMNSLRAEDTAVYYCARDKRLTYWGQGTMVTVSSGGGGSGGGGSGGGGSAQSVVTQPPSVSAAPGQKVTISCSGSSSNIGNNYVSWYQQLPGTAPKLLIYDNNKRPSGIPDRFSGSKSGTSATLGITGLQTGDEADYYCGTWDSSLSARVFGGGTKVTVLGAAAHHHHHH
notes: Human scFv from a phage display library, purified on NiNTA and detected with anti-Myc; also called scFv PSG6
For B1, the binding result in the assay with human PSGL-1 on cells [1] is reported as “binds”.

B2: PSG3 full-length bivalent antibody (human IgG4, lambda) (antibody, V domains shown)
VH: QVQLVQSGAEVKKPGSSVRVSCKASGGSFSSYGIHWVQQAPGQGLEWMGRIIPVLRIRNYAQKFHDRVTIDADTSTGTAYMELSSLTSDDTAVYYCAGSRQGVAPTGYWGQGTMVTVSS
VL: QAVLTQPSSLSASPGASASLTCNLRSGIDVGTYRIYWYQQKPGSPPQYLLRYKSDSDKQQGSGVPSRFSGTKDASANAGILLISGLQSEDEADYYCMIWHSNGWVFGGGTKLTVLG
notes: also called full length PSG3; human monoclonal antibody PSG3
The molecule B2 came in with a Ka in assay [2] of about 1.4e+09 M⁻¹. The binding result (with human PSGL-1 on cells [3]; in assay [4]) was “binds” in each case.

B3: PSG3 scFv (scFv)
scFv: QVQLVQSGAEVKKPGSSVRVSCKASGGSFSSYGIHWVQQAPGQGLEWMGRIIPVLRIRNYAQKFHDRVTIDADTSTGTAYMELSSLTSDDTAVYYCAGSRQGVAPTGYWGQGTMVTVSSGGGGSGGGGSGGGGSAQAVLTQPSSLSASPGASASLTCNLRSGIDVGTYRIYWYQQKPGSPPQYLLRYKSDSDKQQGSGVPSRFSGTKDASANAGILLISGLQSEDEADYYCMIWHSNGWVFGGGTKLTVLGAAAHHHHHH
notes: Human scFv from a phage display library, purified from E. coli periplasm on NiNTA and detected with anti-Myc; also called scFv PSG3
For the molecule B3, in the assay with human PSGL-1 on cells [1], the binding result was “binds”.

B4: PSG6 full-length bivalent antibody (human IgG4, lambda) (antibody, V domains shown)
VH: EVQLLESGGGLVRPGGSLRLSCAASGFTFSSYAMSWVRQAPGKGLEWVSAISGSGGSTYYADSVKGRFTISRDNSKNTLYLQMNSLRAEDTAVYYCARDKRLTYWGQGTMVTVSS
VL: QSVVTQPPSVSAAPGQKVTISCSGSSSNIGNNYVSWYQQLPGTAPKLLIYDNNKRPSGIPDRFSGSKSGTSATLGITGLQTGDEADYYCGTWDSSLSARVFGGGTKVTVLG
notes: also called human monoclonal antibody PSG6
With B4, in assay [2], the Ka is about 6e+08 M⁻¹. In the assay with human PSGL-1 on cells [3], the binding result is “binds”.
